The numbers were not newly measured in paper PMC12030383, “Pharmacokinetics, Pharmacodynamics, and Bioequivalence of Test Insulin Glargine Versus Reference Preparation (Lantus®) in Healthy Male Volunteers—By Euglycemic Clamp Technique” (Pharmaceutics, 2025), which cites them from elsewhere.

How the values of this data set were obtained: After subcutaneous injection, the acidic solution in insulin is neutralized so that the insulin analog forms a precipitated microscopic deposit at the injection site, thus allowing for a slow and continuous release of insulin glargine from the injection site into the bloodstream, resulting in a smooth and predictable blood concentration without peaks for up to 24 h. Therefore, insulin glargine can be administered ...

With Insulin glargine, for the setting “acidic solutions”, the “solubility in acidic solutions” value is listed as “completely soluble”. The “solubility in neutral solutions” value (neutral solutions) was “low solubility”.
